Publication PMC13544220, “Glycemic and bodyweight effects of GIPR coding variation reflect differences in surface expression and intrinsic functional impairment” (Science Advances, 2026)

Experiments:
Type in all cases: cell-based, human
[1] = test system: wild-type and variant SNAP-GIPR; test: Constitutive and agonist-mediated internalization, reversible SNAP-tag labelling, AD293 cells; set-up: key to Internalisation, Vehicle / Internalisation, +GIP / Internalisation, GIP-only: % internalization: residual fluorescence after Mesna vs pre-Mesna; Surface expression: unit not given here; conditions: Mean; for +GIP internalisation (100 nM) / GIP-specific internalisation (100 nM) / Constitutive internalisation (100 nM) / Surface expression: Fig 4E; for +GIP internalisation (100 nM) / GIP-specific internalisation (100 nM): GIP 100 nM; for Internalisation, +GIP / Internalisation, GIP-only / Internalisation, Vehicle: Fig S4C, AD293
In short: (§1)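 Surface SNAP-GIPR signal removable by Mesna was tracked by imaging before and 10 min after treatment in pH 8.6 TNE buffer. Internalization is the Mesna-resistant share of specific fluorescence.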

[2] = test system: wild-type and variant SNAP-GIPR; test: Single-concentration GIP cAMP response by HTRF in AD293 cells; conditions: Fig S3F, HTRF, mean;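 note: ratio to experiment-wide average response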
Protocol: (§2) All variants were tested in parallel on each occasion to control for transfection efficiency differences between experiments.

[3] = test system: wild-type and variant SNAP-GIPR; test: Single-concentration GIP cAMP response by HTRF in INS-1 cells; conditions: Fig S3E, mean
Protocol: as §2

[4] = test system: wild-type and variant SNAP-GIPR; test: Constitutive and agonist-mediated internalization, reversible SNAP-tag labelling, INS-1 cells; set-up: key to Internalisation, GIP-only / Internalisation, Vehicle / Internalisation, +GIP: % internalization: residual fluorescence after Mesna vs pre-Mesna; conditions: Mean; for +GIP internalisation (100 nM) / GIP-specific internalisation (100 nM) / Constitutive internalisation (100 nM): Fig 4G; for +GIP internalisation (100 nM) / GIP-specific internalisation (100 nM): GIP 100 nM; for Internalisation, +GIP / Internalisation, GIP-only / Internalisation, Vehicle: Fig S4C, INS-1
In short: as §1

[5] = test system: wild-type and variant SNAP-GIPR; test: Surface SNAP-GIPR expression (SNAP-tag labelling) in INS-1 cells; conditions: Fig 4G; Mean
In short: (§3)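 Surface GIPR is quantified from wide-field images after labelling intact transfected cells with a membrane-impermeant SNAP probe at 500 nM for 10 min at room temperature. Specific signal, corrected for nontransfected cells, is normalized to the experiment-wide average or to wild-type.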

[6] = test system: wild-type and variant SNAP-GIPR; test: cADDis cAMP imaging in AD293 cells, ensemble, expression-matched and per decile; conditions: Fig S3F, cADDis, mean;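 note: Ensemble cells as % of IBMX/FSK response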
In short: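 Variants and wild type ran in parallel in transfected AD293 cells carrying cADDis. Single-cell sensor intensity, with nonresponders to IBMX/FSK removed, was paired with SNAP-Surface 647 labeling to allow expression-matched analysis.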

[7] = test system: wild-type and variant SNAP-GIPR; test: Surface SNAP-GIPR expression (SNAP-tag labelling) in AD293 cells; conditions: for AD293 Surface: Fig S3E, mean; for Surface SNAP-GIPR expression: sheet Fig 1C;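 for all read-outs here: scaled to the experimental average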
In short: as §3

[8] = column repeated, paired with cAMP 100 nM

B1: E463Q (protein, UniProt P48546 22-466, looked up, variant E463Q)
Gastric inhibitory …: RAETGSKGQTAGELYQRWERYRRECQETLAAAEPPSGLACNGSFDMYVCWDYAAPNATARASCPWYLPWHHHVAAGFVLRQCGSDGQWGLWRDHTQCENPEKNEAFLDQRLILERLQVMYTVGYSLSLATLLLALLILSLFRRLHCTRNYIHINLFTSFMLRAAAILSRDRLLPRPGPYLGDQALALWNQALAACRTAQIVTQYCVGANYTWLLVEGVYLHSLLVLVGGSEEGHFRYYLLLGWGAPALFVIPWVIVRYLYENTQCWERNEVKAIWWIIRTPILMTILINFLIFIRILGILLSKLRTRQMRCRDYRLRLARSTLTLVPLLGVHEVVFAPVTEEQARGALRFAKLGFEIFLSSFQGFLVSVLYCFINKEVQSEIRRGWHHCRLRRSLGEEQRQLPERAFRALPSGSGPGEVPTSRGLSSGTLPGPGNEASRELQSYC
+GIP internalisation (100 nM) [1]: 0.6258
GIP-specific internalisation (100 nM) [1]: 0.1525
Constitutive internalisation (100 nM) [1]: 0.4733
Surface expression [1]: 1.14
Internalisation, +GIP [1]: 55.318
Internalisation, GIP-only [1]: 13.3425
Internalisation, Vehicle [1]: 41.9756
AD293 100 pM HTRF [2]: 1.1295
AD293 100 nM HTRF [2]: 1.311
INS-1 cAMP (100 nM) [3]: 1.2
+GIP internalisation (100 nM) [4]: 0.6116
GIP-specific internalisation (100 nM) [4]: 0.1296
Constitutive internalisation (100 nM) [4]: 0.4821
Internalisation, +GIP [4]: 48.5083
Internalisation, GIP-only [4]: 10.305
Internalisation, Vehicle [4]: 38.2033
Surface expression [5]: 1.282
AD293 100 pM cADDis [6]: 34.7191
AD293 100 nM cADDis [6]: 36.9
AD293 Surface [7, 8]: 1.191
AD293 Surface ([7]; paired with cAMP 100 pM): 1.191
Surface SNAP-GIPR expression ([7]; replicate 1): 1.219
Surface SNAP-GIPR expression ([7]; replicate 2): 1.021
Surface SNAP-GIPR expression ([7]; replicate 3): 0.7247
Surface SNAP-GIPR expression ([7]; replicate 4): 1.851
Surface SNAP-GIPR expression ([7]; replicate 5): 0.8113
Surface SNAP-GIPR expression ([7]; replicate 6): 1.148
Surface SNAP-GIPR expression ([7]; replicate 7): 0.8161
Surface SNAP-GIPR expression ([7]; replicate 8): 1.203
Surface SNAP-GIPR expression ([7]; replicate 9): 1.004
Surface SNAP-GIPR expression ([7]; replicate 10): 0.9721
Surface SNAP-GIPR expression ([7]; replicate 11): 1.39
Surface SNAP-GIPR expression ([7]; replicate 12): 1.373
Surface SNAP-GIPR expression ([7]; replicate 13): 1.65
Surface SNAP-GIPR expression ([7]; replicate 14): 1.648
Surface SNAP-GIPR expression ([7]; replicate 15): 1.459
Surface SNAP-GIPR expression ([7]; replicate 16): 1.416
Surface SNAP-GIPR expression ([7]; replicate 17): 1.284
Surface SNAP-GIPR expression ([7]; replicate 18): 1.262
Surface SNAP-GIPR expression ([7]; replicate 19): 1.404
Surface SNAP-GIPR expression ([7]; replicate 20): 1.518
Surface SNAP-GIPR expression ([7]; replicate 21): 1.445
Surface SNAP-GIPR expression ([7]; replicate 22): 1.187
Surface SNAP-GIPR expression ([7]; replicate 23): 1.117
Surface SNAP-GIPR expression ([7]; replicate 24): 1.135
Surface SNAP-GIPR expression ([7]; replicate 25): 1.182
Surface SNAP-GIPR expression ([7]; replicate 26): 1.219
Surface SNAP-GIPR expression ([7]; replicate 27): 0.8928
Surface SNAP-GIPR expression ([7]; replicate 28): 1.514
Surface SNAP-GIPR expression ([7]; replicate 29): 0.593
Surface SNAP-GIPR expression ([7]; replicate 30): 0.9046
Surface SNAP-GIPR expression ([7]; replicate 31): 0.8556
Surface SNAP-GIPR expression ([7]; replicate 32): 1.334
Surface SNAP-GIPR expression ([7]; replicate 33): 1.324
Surface SNAP-GIPR expression ([7]; replicate 34): 1.052
Surface SNAP-GIPR expression ([7]; replicate 35): 1.061
Surface SNAP-GIPR expression ([7]; replicate 36): 1.215
Surface SNAP-GIPR expression ([7]; replicate 37): 1.115
Surface SNAP-GIPR expression ([7]; replicate 38): 0.8974
Surface SNAP-GIPR expression ([7]; replicate 39): 1.265
Surface SNAP-GIPR expression ([7]; replicate 40): 1.153
Surface SNAP-GIPR expression ([7]; replicate 41): 1.19

B2: I403V (protein, UniProt P48546 22-466, looked up, variant I403V)
Gastric inhibitory …: RAETGSKGQTAGELYQRWERYRRECQETLAAAEPPSGLACNGSFDMYVCWDYAAPNATARASCPWYLPWHHHVAAGFVLRQCGSDGQWGLWRDHTQCENPEKNEAFLDQRLILERLQVMYTVGYSLSLATLLLALLILSLFRRLHCTRNYIHINLFTSFMLRAAAILSRDRLLPRPGPYLGDQALALWNQALAACRTAQIVTQYCVGANYTWLLVEGVYLHSLLVLVGGSEEGHFRYYLLLGWGAPALFVIPWVIVRYLYENTQCWERNEVKAIWWIIRTPILMTILINFLIFIRILGILLSKLRTRQMRCRDYRLRLARSTLTLVPLLGVHEVVFAPVTEEQARGALRFAKLGFEIFLSSFQGFLVSVLYCFINKEVQSEVRRGWHHCRLRRSLGEEQRQLPERAFRALPSGSGPGEVPTSRGLSSGTLPGPGNEASRELESYC
+GIP internalisation (100 nM) [1]: 0.6419
GIP-specific internalisation (100 nM) [1]: 0.176
Constitutive internalisation (100 nM) [1]: 0.4659
Surface expression [1]: 1.133
Internalisation, +GIP [1]: 57.0289
Internalisation, GIP-only [1]: 15.5744
Internalisation, Vehicle [1]: 41.4545
AD293 100 pM HTRF [2]: 1.267
AD293 100 nM HTRF [2]: 1.595
INS-1 cAMP (100 nM) [3]: 1.36
+GIP internalisation (100 nM) [4]: 0.5388
GIP-specific internalisation (100 nM) [4]: 0.1314
Constitutive internalisation (100 nM) [4]: 0.4074
Internalisation, +GIP [4]: 49.7833
Internalisation, GIP-only [4]: 12.345
Internalisation, Vehicle [4]: 37.4383
Surface expression [5]: 1.09
AD293 100 pM cADDis [6]: 32.3253
AD293 100 nM cADDis [6]: 38.62
AD293 Surface [7, 8]: 1.077
AD293 Surface ([7]; paired with cAMP 100 pM): 1.077
Surface SNAP-GIPR expression ([7]; replicate 1): 1.081
Surface SNAP-GIPR expression ([7]; replicate 2): 1.363
Surface SNAP-GIPR expression ([7]; replicate 3): 0.2202
Surface SNAP-GIPR expression ([7]; replicate 4): 1.549
Surface SNAP-GIPR expression ([7]; replicate 5): 1.258
Surface SNAP-GIPR expression ([7]; replicate 6): 1.264
Surface SNAP-GIPR expression ([7]; replicate 7): 0.985
Surface SNAP-GIPR expression ([7]; replicate 8): 0.9444
Surface SNAP-GIPR expression ([7]; replicate 9): 1.045
Surface SNAP-GIPR expression ([7]; replicate 10): 1.237
Surface SNAP-GIPR expression ([7]; replicate 11): 0.9384
Surface SNAP-GIPR expression ([7]; replicate 12): 0.958
Surface SNAP-GIPR expression ([7]; replicate 13): 1.387
Surface SNAP-GIPR expression ([7]; replicate 14): 1.061
Surface SNAP-GIPR expression ([7]; replicate 15): 1.05
Surface SNAP-GIPR expression ([7]; replicate 16): 0.9753
Surface SNAP-GIPR expression ([7]; replicate 17): 1.072
Surface SNAP-GIPR expression ([7]; replicate 18): 0.9656
Surface SNAP-GIPR expression ([7]; replicate 19): 0.8084
Surface SNAP-GIPR expression ([7]; replicate 20): 1.091
Surface SNAP-GIPR expression ([7]; replicate 21): 0.9955
Surface SNAP-GIPR expression ([7]; replicate 22): 1.089
Surface SNAP-GIPR expression ([7]; replicate 23): 1.06
Surface SNAP-GIPR expression ([7]; replicate 24): 1.048
Surface SNAP-GIPR expression ([7]; replicate 25): 0.9764
Surface SNAP-GIPR expression ([7]; replicate 26): 0.8875
Surface SNAP-GIPR expression ([7]; replicate 27): 0.9058
Surface SNAP-GIPR expression ([7]; replicate 28): 1.123
Surface SNAP-GIPR expression ([7]; replicate 29): 1.103
Surface SNAP-GIPR expression ([7]; replicate 30): 1.39
Surface SNAP-GIPR expression ([7]; replicate 31): 1.166
Surface SNAP-GIPR expression ([7]; replicate 32): 1.223
Surface SNAP-GIPR expression ([7]; replicate 33): 1.12
Surface SNAP-GIPR expression ([7]; replicate 34): 1.156
Surface SNAP-GIPR expression ([7]; replicate 35): 1.076
Surface SNAP-GIPR expression ([7]; replicate 36): 1.273
Surface SNAP-GIPR expression ([7]; replicate 37): 1.139
Surface SNAP-GIPR expression ([7]; replicate 38): 1.049
Surface SNAP-GIPR expression ([7]; replicate 39): 1.042
Surface SNAP-GIPR expression ([7]; replicate 40): 1.006
Surface SNAP-GIPR expression ([7]; replicate 41): 1.094
